Biological target: the molecule itself
Test: crystal structure; crystals grown in Tris buffer, soaked in Tricine-buffered Tris-free solution without or with amino acids (L-Ser, L-Hse, Gly, L-Ala, L-Thr); space group P4(1)2(1)2, one molecule per asymmetric unit, dimer generated by crystallographic symmetry; 100 K

B1: Sphingobacterium multivorum serine palmitoyltransferase (enzyme, UniProt A7BFV6 1-399, looked up)
chain: MSKGKLGEKISQFKIVEELKAKGLYAYFRPIQSKQDTEVKIDGRRVLMFGSNSYLGLTTDTRIIKAAQDALEKYGTGCAGSRFLNGTLDIHVELEEKLSAYVGKEAAILFSTGFQSNLGPLSCLMGRNDYILLDERDHASIIDGSRLSFSKVIKYGHNNMEDLRAKLSRLPEDSAKLICTDGIFSMEGDIVNLPELTSIANEFDAAVMVDDAHSLGVIGHKGAGTASHFGLNDDVDLIMGTFSKSLASLGGFVAGDADVIDFLKHNARSVMFSASMTPASVASTLKALEIIQNEPEHIEKLWKNTDYAKAQLLDHGFDLGATESPILPIFIRSNEKTFWVTKMLQDDGVFVNPVVSPAVPAEESLIRFSLMATHTYDQIDEAIEKMVKVFKQAEVETLI
modifications: PLP-Lys244 internal aldimine (ligand-free form); in the amino acid complexes PLP forms an external aldimine with the amino acid
notes: serine palmitoyltransferase of Sphingobacterium multivorum, full length, 398 amino acid residues; the model holds Ser2 to Val395; no tag is mentioned; also called S. multivorum SPT; SPT; source: E. coli BL21 (DE3) pLysS, purified (DEAE, Butyl, second DEAE column chromatography, desalting)
B1: binds.

From PMC10196870, “Structural insights into the substrate recognition of serine palmitoyltransferase from Sphingobacterium multivorum” (The Journal of Biological Chemistry, 2023)
